Data from publication PMC11196586, “Molecular insight into interactions between the Taf14, Yng1 and Sas3 subunits of the NuA3 complex” (Nature Communications, 2024).
Changes are numbered by the printed parent chain. Numbers in names are those of the source.

T1: Taf14ET (Saccharomyces cerevisiae, UniProt P35189)
T1 construct: Taf14ET (aa 168-243); His; made in house; host or cells: Escherichia coli Rosetta-2 (DE3) pLysS
T1 sequence (P35189 168-243): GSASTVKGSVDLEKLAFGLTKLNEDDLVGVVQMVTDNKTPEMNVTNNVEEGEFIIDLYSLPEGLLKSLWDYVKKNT

T2: His-Taf14FL (aa 1-244) (S. cerevisiae, UniProt P35189 1-244, labeled using a His-Tag Labeling Kit RED-tris-NTA (2nd Generation))
T2 construct: Taf14, S. cerevisiae, UniProt P35189, aa 1-244; His-tagged form used for MST; source: E. coli Rosetta-2 (DE3) pLysS, purified (Ni-NTA, SEC)
T2 sequence (looked up): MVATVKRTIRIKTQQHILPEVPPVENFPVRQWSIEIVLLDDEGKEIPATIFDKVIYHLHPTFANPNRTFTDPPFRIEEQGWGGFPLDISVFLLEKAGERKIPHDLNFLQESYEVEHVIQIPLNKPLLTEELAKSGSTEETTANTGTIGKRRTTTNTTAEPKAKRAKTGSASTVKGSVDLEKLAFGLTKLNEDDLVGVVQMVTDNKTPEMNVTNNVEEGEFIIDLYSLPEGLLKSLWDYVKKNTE

T3: Taf14FL (full length Taf14, aa 1-244) (S. cerevisiae, UniProt P35189 1-244)
T3 construct: Taf14, S. cerevisiae, UniProt P35189, aa 1-244; uniformly 15N-labelled for NMR; also called transcription initiation factor subunit 14
T3 sequence (looked up): T2 sequence (looked up)

T4: Yng1_(EBM-PHD) (aa 100-219 of Yng1) (S. cerevisiae, UniProt Q08465 100-219)
T4 construct: Yng1, S. cerevisiae, UniProt Q08465, EBM coupled to the PHD finger, aa 100-219; source: E. coli Rosetta-2 (DE3) pLysS, purified
T4 sequence (looked up): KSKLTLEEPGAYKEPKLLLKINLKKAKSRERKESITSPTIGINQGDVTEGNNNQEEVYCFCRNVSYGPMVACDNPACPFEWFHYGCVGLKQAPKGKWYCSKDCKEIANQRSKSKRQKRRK

T5: Taf14FL (full length Taf14, aa 1-244) (S. cerevisiae), P35189
T5 chain: T2 sequence (looked up)

B1: Yng1EBM peptide (aa 113-124 of Yng1), Ac-EPKLLLKINLKK-NH2 (peptide)
peptide: Ac-EPKLLLKINLKK-NH2
notes: also called Yng1 peptide; source: synthetic peptide (Synpeptide)
B2: L118D Yng1EBM peptide (aa 113-124 of Yng1) (peptide, UniProt Q08465 113-124, looked up)
peptide: EPKLLDKINLKK
notes: The wild-type peptide is Ac-...-NH2; source: peptide
B3: L116D Yng1EBM peptide (aa 113-124 of Yng1) (peptide, UniProt Q08465 113-124, looked up)
peptide: EPKDLLKINLKK
notes: as for B2
B4: Taf14ET (extra-terminal domain of Taf14, aa 168-243) (domain or fragment, S. cerevisiae, UniProt P35189 168-243, looked up)
chain: T1 sequence (P35189 168-243)
notes: Taf14, S. cerevisiae, UniProt P35189, ET domain, aa 168-243; Uniformly 15N-labelled for NMR; also called ET domain of Taf14
B5: F220R Taf14ET: F220R mutant of Taf14ET (aa 168-243 of S. cerevisiae Taf14) (protein, UniProt P35189 168-243, looked up, variant F220R)
chain: T1 sequence (P35189 168-243) with F53R
modifications: ET domain (aa 168-243)
B6: I222R Taf14ET: I222R mutant of Taf14ET (aa 168-243 of S. cerevisiae Taf14) (protein, UniProt P35189 168-243, looked up, variant I222R)
chain: T1 sequence (P35189 168-243) with I55R
modifications: ET domain (aa 168-243)
B7: L224R Taf14ET: L224R mutant of Taf14ET (aa 168-243 of S. cerevisiae Taf14) (protein, UniProt P35189 168-243, looked up, variant L224R)
chain: T1 sequence (P35189 168-243) with L57R
modifications: ET domain (aa 168-243)
B8: Sas3EBM peptide (aa 111-122 of Sas3), Ac-SEELKVRIKYDS-NH2 (peptide)
peptide: Ac-SEELKVRIKYDS-NH2
notes: Sas3 (something about silencing 3), catalytic subunit of the yeast NuA3 complex, aa 111-122; also called Sas3 peptide; source: synthetic peptide (Synpeptide)
B9: L114D Sas3EBM peptide (aa 111-122 of Sas3) (peptide, UniProt P34218 111-122, looked up)
peptide: SEEDKVRIKYDS
notes: Sas3, yeast, aa 111-122 with L114D; The wild-type peptide is Ac-...-NH2; source: peptide
B10: Taf14FL (full length Taf14, aa 1-244), P35189 1-244 (natural protein)
chain: T2 sequence (looked up)

How the values were obtained:
Taf14ET = target: T1, Taf14ET; test: NMR 1H,15N HSQC titration (chemical shift perturbations), Taf14ET; assay type: binding; settings: 15N-labelled Taf14ET, 298 K, increasing amounts of mutated peptide
Protocol: (§1) Nuclear magnetic resonance experiments were performed at 298 K on Varian INOVA 900 MHz (for Taf14FL) and 600 MHz (for Taf14ET and Taf14YEATS) spectrometers equipped with cryogenic probes as described. The NMR samples contained 0.05–0.2 mM uniformly ^15N-labeled Taf14 proteins in 50 mM Tris-HCl (pH 6.8–7.5), 150 mM NaCl, 0–5 mM DTT or 1x PBS (pH 6.6–7.5), supplemented with up to an additional 100 mM NaCl, 0–5 mM DTT or 0.2 mM TCEP and 8-10% D2O. Binding was characterized by monitoring chemical shift changes in ^1H,^15N HSQC spectra of the proteins induced by the addition of wild type or mutated Yng1EBM (aa 113-124), Sas3EBM (aa 111-122) and Yng1EBM-PHD (aa 100-219). NMR data were processed and analyzed using NMRPipe as previously described, with the apparent Kds being determined by a nonlinear least-squares analysis and a 1:1 stoichiometry in GraphPad Prism using the equation:2 Δδ=ΔδmaxL+P+Kd−L+P+Kd^2−4PL/2P Where [L] is the concentration of the peptide, [P] is concentration of the protein, Δδ is the observed chemical shift change, and Δδ max is the normalized chemical shift change at saturation. Normalized chemical shift changes were calculated using the equation δ=ΔδH^2+(ΔδN/5)^2 (3), where Δδ is the change in chemical shift in parts per million (ppm).

Taf14YEATS = test: NMR 1H,15N HSQC titration, Taf14YEATS; assay type: binding, Saccharomyces cerevisiae; settings: 298 K
Protocol: as §1

Taf14ET-601 DNA complex = test: EMSA of 601 Widom DNA with Taf14ET with or without peptide; assay type: biochemical, Saccharomyces cerevisiae; settings: protein preincubated with peptide at 1:2.5 molar ratio; 8% native polyacrylamide gel
Protocol: (§2) EMSAs were performed by mixing increasing amounts of Taf14 proteins with 0.25 pmol/lane of 601 DNA in 25 mM Tris-HCl pH 7.5, 25-100 mM NaCl, 0.2 mM ethylenediaminetetraacetic acid (EDTA), 10% glycerol and 1 mM DTT in 10 µL reaction volume. The Taf14 proteins were either preincubated with Yng1EBM at a 1:2.5 molar ratio or with Yng1EBM and Sas3EBM at a 1:1:1 molar ratio for a minimum of 1 h on ice or used without peptides prior to addition of DNA. Reaction mixtures were incubated at 4 °C for 10 min (2-2.5 µl of loading dye was added to each sample) and loaded onto an 8% native polyacrylamide gel. Electrophoresis was performed in 0.5x Tris-borate-EDTA (TBE) at 80–120 V on ice. The gels were stained with SYBR Gold (Thermo Fisher Sci) and visualized by Blue LED (UltraThin LED Illuminator-GelCompany).

Taf14FL-601 DNA complex = test: EMSA of 601 Widom DNA with Taf14FL with or without peptide; assay type: biochemical, Saccharomyces cerevisiae; settings: protein preincubated with peptide at 1:2.5 molar ratio; 8% native polyacrylamide gel
Protocol: as §2

[1] = target: the molecule itself; test: crystal structure; Taf14ET co-crystallized with Yng1EBM peptide (molar ratio 1:2.5); 40% PEG 400, 0.1 M Tris pH 8.5, 0.2 M LiSO4; 1.9 Å
His-Taf14FL (aa 1-244) = target: T2, His-Taf14FL (aa 1-244); test: MST; His-tagged Taf14 labeled with RED-tris-NTA, kept at 10 nM; unlabeled peptide added stepwise; 20 mM Tris-HCl pH 7.5, 150 mM NaCl, 2.5 mM DTT or 0-0.2 mM TCEP; apparent Kd, 1:1 stoichiometry; settings: both partners purified
[2] = target: T3, Taf14FL (full length Taf14, aa 1-244); test: other fluorescence titration; tryptophan fluorescence of Taf14FL with Yng1EBM in the presence of H3K9cr peptide at a 1:10 Taf14FL:H3K9cr molar ratio; apparent Kd, 1:1 stoichiometry; settings: both partners purified
[3] = target: T3, Taf14FL (full length Taf14, aa 1-244); test: other fluorescence titration; tryptophan fluorescence, 25 °C; 1 μM Taf14ET or Taf14FL, increasing peptide; 50 mM Tris-HCl pH 6.8 or 7.5, 150 mM NaCl, 1 mM DTT or 0.2 mM TCEP; excitation 295 nm; apparent Kd, 1:1 stoichiometry; settings: both partners purified
[4] = target: B4; test: as above; settings: both partners purified
[5] = target: B4; test: NMR titration; 1H,15N HSQC of 0.05-0.2 mM 15N-labeled Taf14 proteins, 298 K, unlabeled peptide or Yng1EBM-PHD added; Tris-HCl or PBS, pH 6.6-7.5; apparent Kd from CSPs, 1:1 stoichiometry; settings: both partners purified
[6] = target: T4, Yng1_(EBM-PHD) (aa 100-219 of Yng1); test: as above; settings: both partners purified
[7] = assay type: physicochemical, Saccharomyces cerevisiae
Description: The S. cerevisiae Taf14FL (aa 1-244) (UniProt code P35189), Taf14YEATS (aa 1-137), Taf14ET (aa 168-243) and Yng1EBM-PHD (aa 100-219) (UniProt code Q08465) were cloned into pGEX-6P1, pET22b or pCIOX vectors. The F220R, I222R and L224R mutants of Taf14ET were generated using QuikChange II site directed mutagenesis kit (Agilent). Sequences were confirmed by DNA sequencing. All proteins were expressed in Escherichia coli Rosetta-2 (DE3) pLysS cells grown in either Terrific Broth, Luria Broth or in minimal media supplemented with ^15NH4Cl (Sigma). Protein production was induced with 0.3 mM IPTG for 18 h at 16 °C. Bacteria were harvested by centrifugation and lysed by sonication. GST-fusion proteins were purified on glutathione agarose 4B beads (Thermo Fisher Sci). The GST-tag was cleaved with either PreScission or tobacco etch virus (TEV) protease. After cleavage, Taf14FL and Taf14YEATS retained the pGEX-6P1vector-derived residues Gly and Pro. His-fusion proteins were incubated with Ni-NTA resin (ThermoFisher), washed and eluted with a gradient of imidazole. When necessary, removal of the His-tag was completed during an overnight dialysis, while incubating the protein with ULP1 protease. […]
Nuclear magnetic resonance experiments were performed at 298 K on Varian INOVA 900 MHz (for Taf14FL) and 600 MHz (for Taf14ET and Taf14YEATS) spectrometers equipped with cryogenic probes as described. […] NMR data were processed and analyzed using NMRPipe as previously described, with the apparent Kds being determined by a nonlinear least-squares analysis and a 1:1 stoichiometry in GraphPad Prism using the equation:2 Δδ=ΔδmaxL+P+Kd−L+P+Kd^2−4PL/2P Where [L] is the concentration of the peptide, [P] is concentration of the protein, Δδ is the observed chemical shift change, and Δδ max is the normalized chemical shift change at saturation. Normalized chemical shift changes were calculated using the equation δ=ΔδH^2+(ΔδN/5)^2 (3), where Δδ is the change in chemical shift in parts per million (ppm).

[8] = target: T5, Taf14FL (full length Taf14, aa 1-244) …; test: mass photometry; Taf14FL with Yng1EBM (1:1 molar ratio), final 100 nM, room temperature, 50 mM Tris pH 7.5, 150 mM NaCl, 1 mM TCEP; settings: remark: other sources report otherwise

Molecule: I120D Yng1EBM: Yng1EBM peptide with I120 replaced with aspartate (EPKLLLKDNLKK)
- binding of wild type Taf14ET judged by CSPs in 1H,15N HSQC spectra (Taf14ET): almost negligible CSPs

Molecule: Ac-EPKLLLKINLKK-NH2 [Yng1EBM]
- CSPs induced in 15N-labeled Taf14YEATS (Taf14YEATS): No CSPs
- effect of peptide on DNA binding activity of isolated Taf14ET (EMSA) (Taf14ET-601 DNA complex): increased
- effect of peptide on binding of Taf14FL to 601 DNA (EMSA) (Taf14FL-601 DNA complex): enhanced

Molecule: I118D Sas3EBM: Sas3EBM peptide with single point substitution I118D (SEELKVRDKYDS)
- binding of wild type Taf14ET judged by CSPs in 1H,15N HSQC spectra (Taf14ET): abrogated binding

Molecule: V116D Sas3EBM: Sas3EBM peptide with single point substitution V116D (SEELKDRIKYDS)
- binding of wild type Taf14ET judged by CSPs in 1H,15N HSQC spectra (Taf14ET): abrogated binding

Molecule: B1
- stoichiometry N [1]: 2
- Kd (His-Taf14FL (aa 1-244)): 1200 nM
- Kd [2]: 900 nM
- Kd [3]: 1.1 µM
- Kd [4]: 0.6 µM

Molecule: B2
- Kd [5]: 430 µM

Molecule: B3
- Kd [5]: 180 µM

Molecule: B4
- binding result [6]: binds
- stoichiometry N [1]: 2

Molecule: B5
- stability of mutated Taf14ET protein [7]: unstable

Molecule: B6
- stability of mutated Taf14ET protein [7]: unstable

Molecule: B7
- stability of mutated Taf14ET protein [7]: unstable

Molecule: B8
- Kd [3]: 21 µM
- Kd [4]: 18 µM

Molecule: B9
- Kd [5]: 540 µM

Molecule: B10
- stoichiometry N [8]: 2
